# Measurements published in paper PMC9023282.
# Where “and” joins values, the source holds several entries; their conditions need not be identical. Equal values may be shown once.
# Target: GINS complex (Gins51 and Gins23), wild type (Thermococcus kodakarensis)
# Assay: native gel or EMSA
substance,measurement,value
"family D DNA polymerase (PolD), DP1 and DP2 (complex)",stoichiometry N (PolD per GINS),2 and 1
